The text below walks through data of US20050065081A1, “Tyrosine kinase inhibitors” (priority 2002, published 2005).

This data set has as its system GST-Jun. Nature of the data set: Abl in vitro kinase assay of immunoprecipitated Abl proteins, GST-Jun as substrate. It counts as biochemical. The following applies: expressed in HEK293 cells, relative to Abl M1-K531. The procedure:
C. Abl protein was immunoprecipitated from total cell extract using anti-Abl antibodies, blotted to nitrocellulose and probed with anti-Abl and anti-phosphotyrosine antibodies (left panels). Abl immunoprecipitates were assayed for catalytic activity by in vitro kinase assay using GST-Jun as substrate.
The catalytic activity of purified Abl protein bound to protein G-Sepharose beads was determined as follows. Beads were washed three times with IP buffer, two times with IP buffer without NaCl and two times with kinase assay buffer (20 mM Tris-HCl pH 7.5, 10 mM MgCl2, 1 mM DTT). Twenty μl linase assay mix (1 μg GST-Crk121-226 (Dorey et al., 1999), 0.5 μl [γ-^32P]-ATP (Amersham), 0.1 mM ATP in kinase assay buffer) was added and the mixture was incubated at room temperature for 10 and 20 minutes. The kinase reaction was stopped by adding SDS-sample buffer and analyzed by SDS-PAGE. Quantification of the reaction was done by cutting the desired bands from gel followed by liquid scintillation counting and/or phosphoimager analysis. For the in vitro inhibition of Abl, GST or GST 1b+2 protein were bacterially expressed, purified and dialysed against kinase assay buffer. Equal quantities of purified proteins were added directly to the kinase assay mixture, samples were incubated for 2 hours at 4° C. and then assayed as above.

With “Abl M1-K531: deletion mutant lacking the last exon region of c-Abl”, the “Catalytic activity and tyrosine phosphorylation (in words)” value was “did not lead to activation”.

B1: Abl P82-K531: mutant lacking the last exon region and the N-terminal amino acids preceding the SH3 domain (protein, UniProt P00519 82-531, looked up, fragment)
chain: ITKGEKLRVLGYNHNGEWCEAQTKNGQGWVPSNYITPVNSLEKHSWYHGPVSRNAAEYLLSSGINGSFLVRESESSPGQRSISLRYEGRVYHYRINTASDGKLYVSSESRFNTLAELVHHHSTVADGLITTLHYPAPKRNKPTVYGVSPNYDKWEMERTDITMKHKLGGGQYGEVYEGVWKKYSLTVAVKTLKEDTMEVEEFLKEAAVMKEIKHPNLVQLLGVCTREPPFYIITEFMTYGNLLDYLRECNRQEVNAVVLLYMATQISSAMEYLEKKNFIHRDLAARNCLVGENHLVKVADFGLSRLMTGDTYTAHAGAKFPIKWTAPESLAYNKFSIKSDVWAFGVLLWEIATYGMSPYPGIDLSQVYELLEKDYRMERPEGCPEKVYELMRACWQWNPSDRPSFAEIHQAFETMFQESSISDEVEKELGKQGVRGAVSTLLQAPELPTK
modifications: isoform 1B
notes: mutant lacking the last exon region and the N-terminal amino acids preceding the SH3 domain
Consider B1, for which the “Catalytic activity and tyrosine phosphorylation (in words)” value was “highly active in vitro”.
